# Reference: patent US8530235B2, “Medium that supports culture of an oocyte and modulation of granulosa cell apoptosis” (Adelaide Research & Innovation Pty Ltd., priority 2005, dated 2013)
# B1: BMP-15: Recombinant ovine BMP-15 produced in-house in transfected 293H cells, partially purified by hydrophobic interaction chromatography; dosed as % v/v (protein, UniProt Q9MZE2 269-393, looked up)
# Bone morphogenetic protein 15: QAGSIASEVPGPSREHDGPESNQCSLHPFQVSFQQLGWDHWIIAPHLYTPNYCKGVCPRVLHYGLNSPNHAIIQNLVSELVDQNVPQPSCVPYKYVPISILLIEANGSILYKEYEGMIAQSCTCR
# B2: GDF-9: Recombinant mouse GDF-9 produced in-house in transfected 293H cells, partially purified by HIC (protein, UniProt Q07105 307-441, looked up)
# Growth/differentiation factor …: GQKAIRSEAKGPLLTASFNLSEYFKQFLFPQNECELHDFRLSFSQLKWDNWIVAPHRYNPRYCKGDCPRAVRHRYGSPVHTMVQNIIYEKLDPSVPRPSCVPGKYSPLSVLTIEPDGSIAYKEYEDMIATRCTCR
# Experiments:
# cumulus cells = experiment: Staurosporine-induced cumulus cell apoptosis in OOX (TUNEL); type: cell-based, Bovine; conditions: 10% BMP-15 or 10 ng/ml BMP-6
# Experimental: CC apoptoic DNA was detected using TUNEl (Roche Diagnostic, Penzberg, Germany) according to the manufacturer's instructions. […] Complexes were then permeabilized in 0.11/u Triton X-100 in 0.1% sodium citrate for 1 hour at room temperature and washed 3 times in PBS/BSA. The complexes were then incubated in fluorescein-conjugated dUTP and terminal deoxynucleotide transferase (TUNEl reagents, Roche) for 1 hour at 37° C. in the dark. Positive controls were incubated in DNAse 1 (0.005 U/µl), which cleaves all DNA, for 20 minutes at room temperature and washed twice in PBS/BSA before TUNEl. Negative controls were incubated in fluorescein-dUTP in the absence of TdT. After TUNEl, complexes were washed twice in PBS/BSA and counterstained with propidium iodide 0.5 μg/ml (PI) plus RNase A (0.1 mg/ml) for 1 hour at room temperature in the dark to label all nuclei. Complexes were then washed twice in PBS/BSA and mounted with slight coverslip compression in VectaShield anti-bleaching solution (Vector labs, Burlingame, Calif.), and stored in the dark at 4° C. for confocal analysis. […] These optical section images were acquired and saved as independent colour channels (green, apoptotic cumulus fluorescence and red, nuclear cumulus fluorescence). The captured images were then processed in Scanalytics IPlab software Version 3.6. (Scanalytics, Fairfax, Va.). Quantification of CC number (for each colour channel) was independently measured using a macro script utilizing an auto segmentation filter for each optical section percentile (3 optical “z”-plane sections for each complex). A percentage of apoptotic nuclei were generated for each slice and the three percentile values were then averaged to achieve a representation of the total apoptotic nuclei percentage for the whole complex. These processes were repeated separately on each individual complex. A preliminary experiment was conducted to determine the apoptotic effect of staurosporine on bovine CC, which induced apoptosis in a dose-dependent manner (range; 0.1-100 μM, data not shown). The aim of this experiment was to determine whether OSF could prevent CC from undergoing apoptosis induced by staurosporine. OOX alone or co-cultured with 35 DO, 10 ng/ml BMP-6 or 10% (v/v) BMP-15, and were then exposed to either 0.1 μM or 1.0 μM staurospourine for the last 6 hours of the 24 hour incubation period. Three replicates of this experiment were carried out using 10 OOX per treatment group per replicate experiment.
# cumulus-oocyte complexes = experiment: Study IV: oocyte developmental competence after IVM, IVF and embryo culture; type: cell-based, Bovine; conditions: for blastocyst yields with exogenous factor / effect on cleavage rate: Experiments 3 & 4; for blastocyst yields with exogenous factor: 175 ng/ml GDF9 or 10% v/v BMP15; for effect on cleavage rate: 4 μM SB-431542, 175 ng/ml GDF9, 10% v/v BMP15, 10% v/v 293H
# Experimental: Unless otherwise specified, all chemicals and reagents were purchased from Sigma (St Louis, Mo.). Bovine ovaries were collected from local abattoirs and transported to the laboratory in warm saline (30-35° C.). COCs were aspirated from antral follicles (3 to 5 mm diameter) using an 18-gauge needle and a 10-ml syringe containing ˜2 ml aspiration medium (Hepes-buffered. Tissue Cultured Medium-199; TCM-199. ICN Biochemicals, Irvine, Calif., USA) supplemented with 50 μg/ml kanamycin, 0.5 mM sodium pyruvate, 50 μg/ml heparin and 4 mg/ml fatty acid-free bovine serum albumin (FAF-BSA; ICPbio Ltd, Aukland, NZ). Intact COCs with compact cumulus vestments>˜5 cell layers and evenly pigmented cytoplasm were selected under a dissecting microscope and washed twice in Hepes-buffered TCM-199 and once in Hepes-buffered TCM-199 supplemented with 10% fetal calf serim (FCS) (Invitrogen, Carlsbad, Calif.). The basic medium for oocyte maturation was Bovine VitroMat (Cook Australia, Eight Mile Plains, Qld, Australia), a medium based on the ionic composition of bovine follicular fluid. […] Complexes were cultured in pre-equilibrated 300 ? l drops overlaid with mineral oil and incubated at 39° C. with 5% CO2 in humidified air for 24 hour. […]
# Recombinant mouse GDF9 and recombinant ovine BMP15 were produced and partially purified in-house as previously described using transfected 293 human embryonic kidney cell lines (293H) originally donated by O. Ritvos (University of Helsinki). Control conditioned medium (hereafter designated ‘293H’) was produced from untransfected 293H cells and subjected to the same chromatography procedures as GDF9 and BMP15 conditioned media.
# Consequently, SB-431542 potently antagonizes the ALK 4/5 ligands; TGF-β1, the activins and GDF9, without affecting BMP signalling (Inman et al., 2002; Gilchrist et al., 2006). […] Follistatin-288 was generously donated by S. Shimasaki (University of California San Diego, USA) and we have previously shown that this binding protein antagonizes the bioactivities of native OSFs and recombinant BMP15 in CCs.
# In vitro production of embryos was undertaken using defined, serum-free media (Bovine Vitro series of media, Cook Australia). Frozen semen from a single bull of proven fertility was used in all experiments. Briefly, thawed semen was layered over a discontinuous (45%: 90%) Percoll gradient (Amersham Bioscience) and centrifuged (RT) for 20-25 mins at 700 g. The supernatant was removed and the sperm pellet was washed with 500 μl Bovine VitroWash (Cook Australia) and centrifuged for a further 5 minutes at 200 g. Spermatozoa were resuspended with IVF medium (Bovine VitroFert, Cook Australia), then added to the fertilization media drops (Bovine VitroFert, supplemented with 0.01 mM heparin, 0.2 mM penicillamine and 0.1 mM hypotaurine) at a final concentration of 1×106 spermatozoa/ml. COCs were inseminated at a density of 10 μl of IVF medium per COC for 24 h, at 39° C. in 6% CO2 in humidified air.
# CCs were removed by gentle pipetting 23-24 h post insemination and five presumptive zygotes were transferred into 20 μl drops of pre-equilibrated Cook Bovine VitroCleave medium (Cook Australia) and cultured under mineral oil at 38.5° C. in 7% O2, 6% CO2, balance N2, for five days (day 1 to day 5).
# On Day 5, embryos were transferred in groups of 5-6 to 20 μl drops of pre-equilibrated Bovine VitroBlast (Cook Australia) at 38.5° C. overlaid with mineral oil and cultured to Day 8. Embryos were assessed for quality at Day 8 according to the definitions presented in the Manual of the International Embryo Transfer Society (Stringfellow, 1998) and were performed independently and blinded by an experienced bovine embryologist.
# Cell counts were performed using a modified version of the technique described by (Fouladi-Nashta et al., 2005). […]
# [1] = test system: cumulus expansion of oocytectomised (OOX) complexes; experiment: FSH-induced cumulus expansion score of OOX complexes; type: cell-based, mice; conditions: score 0 (no expansion) to +4 (maximum expansion); mean ±SEM; OOX complexes with FSH
# Experimental: Members of the TGF-β superfamily are prime candidates for the mouse cumulus expansion-enabling factor (CEEF). This study was conducted to examine TGF-β superfamily processes regulating cumulus expansion. COCs were collected from eGG-primed mice and the oocyte microsurgically removed to generate oocytectomised (OOX) complexes. […] The type-I receptors for GDF9 and […] are ALK5 and ALK4, respectively. We tested the ability of an ALK4/5/7 kinase inhibitor to neutralize cumulus expansion.
Molecule,CC apoptosis of treated OOX exposed to staurosporine (cumulus cells; 0.1 μM staurosporine),CC apoptosis of treated OOX exposed to staurosporine (cumulus cells; 1 μM staurosporine),enhancement of development to the blastocyst stage compared to 293H-treated COCs (cumulus-oocyte complexes; 10% v/v BMP15 during IVM),enhancement of development to the blastocyst stage compared to control COCs (cumulus-oocyte complexes; 10% v/v BMP15 during IVM),blastocyst yields with exogenous factor (cumulus-oocyte complexes),effect on cleavage rate (cumulus-oocyte complexes),cumulus expansion score [1],"blastocyst yield (cumulus-oocyte complexes; Experiment 2, 175 ng/ml GDF9, with or without 10% v/v BMP15)"
B1,17%,25%,30%,16%,increased blastocyst yields,did not significantly alter cleavage rates,–,–
B2,–,–,–,–,increased blastocyst yields,did not significantly alter cleavage rates,3.7±0.1,"increased (P<0.05) blastocyst yield compared to 293H-treated COCs, but not compared to COCs cultured alone"
